B1: recombinant IQD14 (residues 307-418), all three putative IQ domains (domain or fragment)
chain: RREIVYRPEPTLPVQHASATKIQGAFRGYMARKSFRALKGLVRLQGVVRGYSVKRQTINAMKYMQQVVRVQSQIQSRRIKMLENQAQVEKDEAKWAASEAGNDNWDDSVLTK
B2: recombinant CML13 (natural protein)
chain: MGKDGLSDDQVSSMKEAFMLFDTDGDGKIAPSELGILMRSLGGNPTQAQLKSIIASENLSSPFDFNRFLDLMAKHLKTEPFDRQLRDAFKVLDKEGTGFVAVADLRHILTSIGEKLEPNEFDEWIKEVDVGSDGKIRYEDFIARMVAK
B3: recombinant CML14 (natural protein)
chain: B2 chain with G2S, D8N, Q47E, A48S, A55T, S56T, E117Q, N119S
B4: IQD14-IQ1+2 synthetic peptide, residues 322-367 (peptide)
peptide: not shown
modifications: N-terminal acetylation; C-terminal amidation

Changes are numbered by the printed parent chain.

Experiment [1] concerns the target recombinant CaM (petunia CaM81) (petunia, UniProt P62199 1-149). Put plainly: ITC. A general note: ITC needs no label: the signal is the heat of the interaction.
In a further experiment the target is T1, biotinylated CML13 (Arabidopsis thaliana, UniProt Q94AZ4 1-148, biotin, covalently conjugated (biotin-NHS ester), sites not stated).
T1 sequence: B2 chain
Kind of experiment: far-Western, overlay or dot blot.

A further experiment concerns the target T2, biotinylated CML14 (Arabidopsis thaliana, UniProt Q8VZ50 1-148, biotin, covalently conjugated (biotin-NHS ester), sites not stated).
T2 sequence: B2 chain with G2S, D8N, Q47E, A48S, A55T, S56T, E117Q, N119S
Kind of experiment: far-Western, overlay or dot blot.

For experiment [2], the target named is biotinylated CaM (petunia CaM81) (petunia, UniProt P62199 1-149, biotin, covalently conjugated (biotin-NHS ester), sites not stated). Kind of experiment: far-Western, overlay or dot blot.
The experiment “recombinant CML14” addresses B3. Put plainly: ITC.
The target of the experiment “recombinant CML13” is B2. Kind of experiment: ITC.
Experiment [3] has as its target B4. Kind of experiment: AUC.

As for Ac-ALKGLVRLQGVVRGYSVKRQTINA-NH2 [IQD14-IQ2 synthetic peptide, residues 344-367], the binding result in experiment [1] is “binds”.
Regarding B1, the binding result (in the experiment with biotinylated CML13; with biotinylated CML14; in experiment [2]) was “binds” throughout.
Broadly, the Kd is the constant that tells how readily two partners part at equilibrium. With Ac-QHASATKIQGAFRGYMARKSFRALK-NH2 [IQD14-IQ1 synthetic peptide, residues 322-346], the Kd with recombinant CML14 was determined as 0.116 µM; in experiment [1] it was 0.007 µM; with recombinant CML13, 0.222 µM.
What is called stoichiometry N is a count of units in the complex or per binding partner. Regarding B2, the “stoichiometry N” value in experiment [3] worked out at 1.
Regarding B3, the “stoichiometry N” value in experiment [3] came to 1.
Regarding B4, the binding result (with recombinant CML14; in experiment [1]; with recombinant CML13) was “binds” throughout.

The record behind these values is paper doi:10.1101/2023.03.09.531943 (bioRxiv, 2023).
